Source: US20220177587A1, “METHODS AND USES OF VARIANT CD80 FUSION PROTEINS AND RELATED CONSTRUCTS” (Alpine Immune Sciences, Inc., priority 2018, published 2022)
One block for each substance: values may come before it.

Tests used:
CD28 (human) [1] = biological target: CD28 (human) (UniProt P10747); assay: flow cytometry, Jurkat/IL2 reporter cells (CD28)
PD-L1 (human) [2] = biological target: PD-L1 (human) (UniProt Q9NZQ7); assay: flow cytometry, CHO cells expressing huPD-L1
PD-L1 (human) [3] = biological target: PD-L1 (human) (UniProt Q9NZQ7); assay: flow cytometry, CHO cells expressing huPD-L1; remark: listed apart in the source
Target sequence in this assay (Q9NZQ7 19-290): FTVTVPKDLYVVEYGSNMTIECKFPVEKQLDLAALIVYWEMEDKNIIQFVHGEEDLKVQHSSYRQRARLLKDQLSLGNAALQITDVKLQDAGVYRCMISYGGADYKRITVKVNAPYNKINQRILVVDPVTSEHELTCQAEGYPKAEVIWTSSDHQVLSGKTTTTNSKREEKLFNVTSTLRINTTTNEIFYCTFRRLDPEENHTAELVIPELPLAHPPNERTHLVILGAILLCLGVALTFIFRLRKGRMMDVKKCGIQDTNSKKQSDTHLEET

CD28 (human) [4] = biological target: CD28 (human) (UniProt P10747); assay: flow cytometry, Jurkat/IL2 reporter cells (CD28); remark: listed apart in the source
human CTLA-4 (human) [5] = biological target: human CTLA-4 (human) (UniProt P16410); assay: flow cytometry, CHO cells expressing huCTLA-4
human CTLA-4 (human) [6] = biological target: human CTLA-4 (human) (UniProt P16410); assay: flow cytometry, CHO cells expressing huCTLA4
PD-L1 (human) [7] = biological target: PD-L1 (human) (UniProt Q9NZQ7)
Target sequence in this assay (Q9NZQ7 19-290): as above

CD28 (human) [8] = biological target: CD28 (human) (UniProt P10747)
PD-L1 (human) [9] = biological target: PD-L1 (human) (UniProt Q9NZQ7); assay: flow cytometry, CHO cells expressing huPD-L1; remark: listed apart in the source
CD28 (human) [10] = biological target: CD28 (human) (UniProt P10747); assay: flow cytometry, Jurkat/IL2 reporter cells (endogenous CD28)
PD-L1 (human) [11] = biological target: PD-L1 (human) (UniProt Q9NZQ7); assay: flow cytometry, MFI on PD-L1 over MFI on CD28
Target sequence in this assay (Q9NZQ7 19-290): as above

human CTLA-4 (human) [12] = biological target: human CTLA-4 (human) (UniProt P16410); assay: flow cytometry, CHO cells expressing CTLA4
PD-L1 (human) [13] = biological target: PD-L1 (human) (UniProt Q9NZQ7); assay: flow cytometry, CHO cells expressing PD-L1
Target sequence in this assay (Q9NZQ7 19-290): as above

CD28 (human) [14] = biological target: CD28 (human) (UniProt P10747); assay: flow cytometry, Jurkat cells (CD28)
human CTLA-4 (human) [15] = biological target: human CTLA-4 (human) (UniProt P16410); assay: flow cytometry, CHO cells stably expressing CTLA4
CD28 (human) [16] = biological target: CD28 (human) (UniProt P10747); assay: flow cytometry, Jurkat cells (CD28); remark: listed apart in the source

Sequence of human CTLA-4 (human) (P16410 36-223): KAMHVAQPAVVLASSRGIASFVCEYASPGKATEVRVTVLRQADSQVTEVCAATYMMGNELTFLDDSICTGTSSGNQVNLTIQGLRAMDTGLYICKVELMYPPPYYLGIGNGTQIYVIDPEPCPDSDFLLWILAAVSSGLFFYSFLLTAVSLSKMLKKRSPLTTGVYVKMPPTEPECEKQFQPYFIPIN

- MFI at 33.3 nM (CD28 (human) [1]): 15500 MFI
- MFI at 33.3 nM (PD-L1 (human) [2]): 29800 MFI
Substance: variant CD80 IgV-Fc E35D/M47I/Y87Q/K89E (Fc fusion)

- MFI at 33.3 nM (PD-L1 (human) [3]): 14800 MFI
- MFI at 33.3 nM (CD28 (human) [4]): 1350 MFI
- MFI at 33.3 nM (human CTLA-4 (human) [5]): 20900 MFI
- MFI at 33.3 nM (CD28 (human) [1]): 11700 MFI
- MFI at 33.3 nM (human CTLA-4 (human) [6]): 807 MFI
- MFI at 33.3 nM (PD-L1 (human) [2]): 89800 MFI
Substance: variant CD80 IgV-Fc E35D/M47V/N48K/V68M/K89N (Fc fusion)

- RLU at 5.0 nM: Fold Increase over WT CD80-IgV-Fc (PD-L1 (human) [7]): 0.5 fold
- RLU at 5.0 nM: Fold Increase over WT CD80-IgV-Fc (CD28 (human) [8]): 0.5 fold
Substance: CD80 IgV-Fc H18Y/E35D/M38I/M47L/V68M/L85M (Fc fusion)

- MFI at 33.3 nM (CD28 (human) [1]): 10400 MFI
Substance: variant CD80 IgV-Fc Q27H/E35D/D46V/M47L/A71G (Fc fusion)

- RLU at 5.0 nM: Fold Increase over WT CD80-IgV-Fc (PD-L1 (human) [7]): 2.4 fold
- RLU at 5.0 nM: Fold Increase over WT CD80-IgV-Fc (CD28 (human) [8]): 2.4 fold
Substance: CD80 IgV-Fc E35D/M47I/V68M/Y87N (Fc fusion)

- RLU at 5.0 nM: Fold Increase over WT CD80-IgV-Fc (PD-L1 (human) [7]): 2.4 fold
- RLU at 5.0 nM: Fold Increase over WT CD80-IgV-Fc (CD28 (human) [8]): 2.4 fold
Substance: CD80 IgV-Fc V22D/E24D/E35D/M47L/V68M/L85M/D90G (Fc fusion)

- MFI at 33.3 nM (PD-L1 (human) [9]): 7940 MFI
- MFI at 33.3 nM (CD28 (human) [10]): 7630 MFI
- MFI at 33.3 nM (CD28 (human) [1]): 18000 MFI
- MFI at 33.3 nM (PD-L1 (human) [2]): 11900 MFI
Substance: WT CD80 ECD-Fc (R&D) (Fc fusion)

- Ratio of PDL1:CD28 (PD-L1 (human) [11]): 77.9
- Fold change to WT CD80 (human CTLA-4 (human) [12]): 12.6 fold
- MFI at 33.3 nM (human CTLA-4 (human) [12]): 22000 MFI
- Fold change to WT CD80 (PD-L1 (human) [13]): 21.5 fold
- MFI at 33.3 nM (PD-L1 (human) [13]): 1110 MFI
- Fold change to WT CD80 (CD28 (human) [14]): 0.5 fold
- MFI at 33.3 nM (CD28 (human) [14]): 14.2 MFI
Substance: CD80 T13R/Q33R/E35D/M38I/M47L/V68M/L85M IgV-Fc (Fc fusion)

- MFI at 33.3 nM (human CTLA-4 (human) [15]): 20600 MFI
- MFI at 33.3 nM (CD28 (human) [16]): 236 MFI
- MFI at 33.3 nM (CD28 (human) [1]): 2160 MFI
- MFI at 33.3 nM (human CTLA-4 (human) [6]): 341000 MFI
- MFI at 33.3 nM (PD-L1 (human) [2]): 53400 MFI
Substance: variant CD80 IgV-Fc A26E/E35D/M47L/A71G (Fc fusion)

- RLU at 5.0 nM: Fold Increase over WT CD80-IgV-Fc (PD-L1 (human) [7]): 0.3 fold
- RLU at 5.0 nM: Fold Increase over WT CD80-IgV-Fc (CD28 (human) [8]): 0.3 fold
Substance: CD80 IgV-Fc T13R/Q33L/E35D/M47V/T62S/V68M/L85M (Fc fusion)

- RLU at 5.0 nM: Fold Increase over WT CD80-IgV-Fc (PD-L1 (human) [7]): 2.5 fold
- RLU at 5.0 nM: Fold Increase over WT CD80-IgV-Fc (CD28 (human) [8]): 2.5 fold
Substance: CD80 IgV-Fc E35D/D46E/M47V/V68M/L85Q (Fc fusion)

- RLU at 5.0 nM: Fold Increase over WT CD80-IgV-Fc (PD-L1 (human) [7]): 2.4 fold
- RLU at 5.0 nM: Fold Increase over WT CD80-IgV-Fc (CD28 (human) [8]): 2.4 fold
Substance: CD80 IgV-Fc V22D/E24D/E35D/M47L/V68M (Fc fusion)

- Ratio of PDL1:CD28 (PD-L1 (human) [11]): 1040
- Fold change to WT CD80 (human CTLA-4 (human) [12]): 11.3 fold
- MFI at 33.3 nM (human CTLA-4 (human) [12]): 19800 MFI
- Fold change to WT CD80 (PD-L1 (human) [13]): 280 fold
- MFI at 33.3 nM (PD-L1 (human) [13]): 14400 MFI
- Fold change to WT CD80 (CD28 (human) [14]): 0.4 fold
- MFI at 33.3 nM (CD28 (human) [14]): 14 MFI
Substance: CD80 H18Y/E35D/V68M/L85M/R94Q IgV-Fc (Fc fusion)

- RLU at 5.0 nM: Fold Increase over WT CD80-IgV-Fc (PD-L1 (human) [7]): 3.1 fold
- RLU at 5.0 nM: Fold Increase over WT CD80-IgV-Fc (CD28 (human) [8]): 3.1 fold
Substance: CD80 IgV-Fc E35D/D46E/M47I/V68M/L85M (Fc fusion)

- MFI at 33.3 nM (CD28 (human) [1]): 1024 MFI
- MFI at 33.3 nM (PD-L1 (human) [2]): 72100 MFI
Substance: variant CD80 IgV-Fc Q33L/E35D/M43I/Y53F/T62S/L85Q (Fc fusion)

- Ratio of PDL1:CD28 (PD-L1 (human) [11]): 1300
- Fold change to WT CD80 (human CTLA-4 (human) [12]): 8.5 fold
- MFI at 33.3 nM (human CTLA-4 (human) [12]): 15000 MFI
- Fold change to WT CD80 (PD-L1 (human) [13]): 361 fold
- MFI at 33.3 nM (PD-L1 (human) [13]): 18600 MFI
- Fold change to WT CD80 (CD28 (human) [14]): 0.5 fold
- MFI at 33.3 nM (CD28 (human) [14]): 14 MFI
Substance: CD80 E35D/M47L/V68M/E95V/L97Q IgV-Fc (Fc fusion)

- Ratio of PDL1:CD28 (PD-L1 (human) [11]): 1270
- Fold change to WT CD80 (human CTLA-4 (human) [12]): 8.8 fold
- MFI at 33.3 nM (human CTLA-4 (human) [12]): 15500 MFI
- Fold change to WT CD80 (PD-L1 (human) [13]): 362 fold
- MFI at 33.3 nM (PD-L1 (human) [13]): 18600 MFI
- Fold change to WT CD80 (CD28 (human) [14]): 0.5 fold
- MFI at 33.3 nM (CD28 (human) [14]): 15 MFI
Substance: CD80 E24D/E35D/M47L/V68M/E95V/L97Q IgV-Fc (Fc fusion)

- Ratio of PDL1:CD28 (PD-L1 (human) [11]): 77.1
- Fold change to WT CD80 (human CTLA-4 (human) [12]): 13.3 fold
- MFI at 33.3 nM (human CTLA-4 (human) [12]): 23300 MFI
- Fold change to WT CD80 (PD-L1 (human) [13]): 365 fold
- MFI at 33.3 nM (PD-L1 (human) [13]): 18800 MFI
- Fold change to WT CD80 (CD28 (human) [14]): 7.8 fold
- MFI at 33.3 nM (CD28 (human) [14]): 244 MFI
Substance: CD80 H18Y/E35D/D46E/M47I/V68M/R94L IgV-Fc (Fc fusion)
